# B1: EFNB1, P52799 (peptide)
# chain: QSPANIYYKV
# B2: GHRHR, Q02643 (peptide)
# chain: SAAKVLTSMC
# Target: MAGI3_2, Q5TCQ9
# Test: holdup assay
# Set-up: key: below the threshold = too weak to quantify, mostly under pKd 3.1 to 4
# Settings: plain residues with an end cap or a label only (N-terminal biotin on a linker: ado-ado)
# MAGI3_2, Q5TCQ9, sequence (Q5TCQ9 398-503): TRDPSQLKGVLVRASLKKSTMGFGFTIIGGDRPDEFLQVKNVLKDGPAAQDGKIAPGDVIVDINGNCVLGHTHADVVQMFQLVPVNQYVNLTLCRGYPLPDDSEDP
row,Binder,pKd
1,B1,below the threshold
2,B2,below the threshold

# Target: T1, RADIL, Q96JH8
# T1 sequence (Q96JH8 971-1071, limits assumed, looked up): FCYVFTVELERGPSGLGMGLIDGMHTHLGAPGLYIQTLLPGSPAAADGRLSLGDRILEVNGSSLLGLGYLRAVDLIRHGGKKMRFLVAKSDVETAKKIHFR
# Test: holdup assay
# Set-up: key: below the threshold = too weak to quantify, mostly under pKd 3.1 to 4
# Settings: plain residues with an end cap or a label only (N-terminal biotin on a linker: ado-ado)
row,Binder,pKd
1,B1,4.05
2,B2,3.71

# Target: T2, GRIP1_7, Q9Y3R0
# T2 sequence (Q9Y3R0 999-1096, limits assumed, looked up): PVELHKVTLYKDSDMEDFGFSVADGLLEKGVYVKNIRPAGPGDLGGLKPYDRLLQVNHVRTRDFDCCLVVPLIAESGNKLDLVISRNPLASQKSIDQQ
# Test: holdup assay
# Set-up: key: below the threshold = too weak to quantify, mostly under pKd 3.1 to 4
# Settings: plain residues with an end cap or a label only (N-terminal biotin on a linker: ado-ado)
row,Binder,pKd
1,B1,below the threshold
2,B2,below the threshold

# Target: T3, RAPGEF6, Q8TEU7
# T3 sequence (Q8TEU7 525-625, limits assumed, looked up): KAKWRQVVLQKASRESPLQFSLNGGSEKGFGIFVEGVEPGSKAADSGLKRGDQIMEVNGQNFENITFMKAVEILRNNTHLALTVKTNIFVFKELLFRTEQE
# Test: holdup assay
# Set-up: key: below the threshold = too weak to quantify, mostly under pKd 3.1 to 4
# Settings: plain residues with an end cap or a label only (N-terminal biotin on a linker: ado-ado)
row,Binder,pKd
1,B1,below the threshold
2,B2,below the threshold

# Target: GOPC, Q9HD26
# Test: holdup assay
# Set-up: key: below the threshold = too weak to quantify, mostly under pKd 3.1 to 4
# Settings: plain residues with an end cap or a label only (N-terminal biotin on a linker: ado-ado)
row,Binder,pKd
1,B1,below the threshold
2,B2,below the threshold

# Target: IL16_1, Q14005
# Sequence (Q14005 210-306): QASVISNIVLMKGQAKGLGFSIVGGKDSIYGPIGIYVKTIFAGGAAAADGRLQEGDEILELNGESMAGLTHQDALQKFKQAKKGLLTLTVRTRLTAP
# Test: holdup assay
# Set-up: key: below the threshold = too weak to quantify, mostly under pKd 3.1 to 4
# Settings: plain residues with an end cap or a label only (N-terminal biotin on a linker: ado-ado)
row,Binder,pKd
1,B1,below the threshold
2,B2,below the threshold

# Target: FRMPD3, Q5JV73
# Sequence (Q5JV73 12-100): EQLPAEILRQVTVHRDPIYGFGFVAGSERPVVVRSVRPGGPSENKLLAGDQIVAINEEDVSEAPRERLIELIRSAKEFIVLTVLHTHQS
# Test: holdup assay
# Set-up: key: below the threshold = too weak to quantify, mostly under pKd 3.1 to 4
# Settings: plain residues with an end cap or a label only (N-terminal biotin on a linker: ado-ado)
row,Binder,pKd
1,B1,below the threshold
2,B2,below the threshold

# Target: MAST1, Q9Y2H9
# Sequence (Q9Y2H9 962-1065): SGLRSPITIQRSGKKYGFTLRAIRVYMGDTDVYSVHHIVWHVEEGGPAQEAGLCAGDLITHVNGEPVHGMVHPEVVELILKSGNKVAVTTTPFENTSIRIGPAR
# Test: holdup assay
# Set-up: key: below the threshold = too weak to quantify, mostly under pKd 3.1 to 4
# Settings: plain residues with an end cap or a label only (N-terminal biotin on a linker: ado-ado)
row,Binder,pKd
1,B1,3.93
2,B2,below the threshold

# Target: MAGI2_5, Q86UL8
# Sequence (Q86UL8 915-1017): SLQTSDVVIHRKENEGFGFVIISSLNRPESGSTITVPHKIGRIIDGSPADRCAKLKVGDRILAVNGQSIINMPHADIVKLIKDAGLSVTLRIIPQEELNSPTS
# Test: holdup assay
# Set-up: key: below the threshold = too weak to quantify, mostly under pKd 3.1 to 4
# Settings: plain residues with an end cap or a label only (N-terminal biotin on a linker: ado-ado)
row,Binder,pKd
1,B1,below the threshold
2,B2,4.36

# Target: DLG4_2, P78352
# Sequence (P78352 155-259): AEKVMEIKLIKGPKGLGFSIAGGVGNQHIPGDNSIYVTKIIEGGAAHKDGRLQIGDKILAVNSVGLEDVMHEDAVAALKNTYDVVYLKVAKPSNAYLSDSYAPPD
# Test: holdup assay
# Set-up: key: below the threshold = too weak to quantify, mostly under pKd 3.1 to 4
# Settings: plain residues with an end cap or a label only (N-terminal biotin on a linker: ado-ado)
row,Binder,pKd
1,B1,below the threshold
2,B2,3.63

# Target: T4, MPP6, Q9NZW5
# T4 sequence (Q9NZW5 125-219, limits assumed, looked up): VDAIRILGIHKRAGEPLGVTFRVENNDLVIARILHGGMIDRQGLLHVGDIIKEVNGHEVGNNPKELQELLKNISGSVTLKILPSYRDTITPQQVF
# Test: holdup assay
# Set-up: key: below the threshold = too weak to quantify, mostly under pKd 3.1 to 4
# Settings: plain residues with an end cap or a label only (N-terminal biotin on a linker: ado-ado)
row,Binder,pKd
1,B1,below the threshold
2,B2,below the threshold

# Target: T5, MPDZ_5, O75970
# T5 sequence (O75970 695-796, limits assumed, looked up): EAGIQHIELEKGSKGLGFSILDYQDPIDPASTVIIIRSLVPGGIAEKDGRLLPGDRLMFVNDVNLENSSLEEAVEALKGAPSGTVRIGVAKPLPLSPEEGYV
# Test: holdup assay
# Set-up: key: below the threshold = too weak to quantify, mostly under pKd 3.1 to 4
# Settings: plain residues with an end cap or a label only (N-terminal biotin on a linker: ado-ado)
row,Binder,pKd
1,B1,below the threshold
2,B2,below the threshold

# Target: T6, MPDZ_10, O75970
# T6 sequence (O75970 1624-1722, limits assumed, looked up): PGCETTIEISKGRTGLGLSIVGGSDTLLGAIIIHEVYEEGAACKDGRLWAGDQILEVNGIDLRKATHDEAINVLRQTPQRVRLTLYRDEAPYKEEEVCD
# Test: holdup assay
# Set-up: key: below the threshold = too weak to quantify, mostly under pKd 3.1 to 4
# Settings: plain residues with an end cap or a label only (N-terminal biotin on a linker: ado-ado)
row,Binder,pKd
1,B1,below the threshold
2,B2,3.49

# Target: T7, CARD11, Q9BXL7
# T7 sequence (Q9BXL7 662-765, limits assumed, looked up): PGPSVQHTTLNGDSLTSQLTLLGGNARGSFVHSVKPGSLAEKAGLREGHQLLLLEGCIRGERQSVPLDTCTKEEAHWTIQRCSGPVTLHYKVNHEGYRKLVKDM
# Test: holdup assay
# Set-up: key: below the threshold = too weak to quantify, mostly under pKd 3.1 to 4
# Settings: plain residues with an end cap or a label only (N-terminal biotin on a linker: ado-ado)
row,Binder,pKd
1,B1,below the threshold
2,B2,below the threshold

# Target: FRMPD4, Q14CM0
# Sequence (Q14CM0 67-160): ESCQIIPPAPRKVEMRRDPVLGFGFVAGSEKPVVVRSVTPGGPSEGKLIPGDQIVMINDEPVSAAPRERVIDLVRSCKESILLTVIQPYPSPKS
# Test: holdup assay
# Set-up: key: below the threshold = too weak to quantify, mostly under pKd 3.1 to 4
# Settings: plain residues with an end cap or a label only (N-terminal biotin on a linker: ado-ado)
row,Binder,pKd
1,B1,3.8
2,B2,below the threshold

# Target: GRIP2_6, Q9C0E4
# Sequence (Q9C0E4 648-740): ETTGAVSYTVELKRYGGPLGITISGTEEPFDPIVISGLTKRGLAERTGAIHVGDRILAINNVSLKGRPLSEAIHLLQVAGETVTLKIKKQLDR
# Test: holdup assay
# Set-up: key: below the threshold = too weak to quantify, mostly under pKd 3.1 to 4
# Settings: plain residues with an end cap or a label only (N-terminal biotin on a linker: ado-ado)
row,Binder,pKd
1,B1,4.4
2,B2,below the threshold

# Target: Inadl_2, Q8NI35
# Sequence (Q8NI35 238-335): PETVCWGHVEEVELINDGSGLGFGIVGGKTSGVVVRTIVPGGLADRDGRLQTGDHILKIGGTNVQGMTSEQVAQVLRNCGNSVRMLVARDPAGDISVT
# Test: holdup assay
# Set-up: key: below the threshold = too weak to quantify, mostly under pKd 3.1 to 4
# Settings: plain residues with an end cap or a label only (N-terminal biotin on a linker: ado-ado)
row,Binder,pKd
1,B1,below the threshold
2,B2,below the threshold

# Target: T8, LRRC7, Q96NW7
# T8 sequence (Q96NW7 1440-1537, limits assumed, looked up): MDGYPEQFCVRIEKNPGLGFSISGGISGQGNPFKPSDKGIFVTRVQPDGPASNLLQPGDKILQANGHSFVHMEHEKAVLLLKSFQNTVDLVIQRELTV
# Test: holdup assay
# Set-up: key: below the threshold = too weak to quantify, mostly under pKd 3.1 to 4
# Settings: plain residues with an end cap or a label only (N-terminal biotin on a linker: ado-ado)
row,Binder,pKd
1,B1,below the threshold
2,B2,below the threshold

# Target: LDB3, O75112
# Sequence (O75112 1-94): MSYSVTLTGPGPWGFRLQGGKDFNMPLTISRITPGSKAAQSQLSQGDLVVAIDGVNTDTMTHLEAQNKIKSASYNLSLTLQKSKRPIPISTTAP
# Test: holdup assay
# Set-up: key: below the threshold = too weak to quantify, mostly under pKd 3.1 to 4
# Settings: plain residues with an end cap or a label only (N-terminal biotin on a linker: ado-ado)
row,Binder,pKd
1,B1,below the threshold
2,B2,below the threshold

# Target: HTRA2, O43464
# Sequence (O43464 355-458): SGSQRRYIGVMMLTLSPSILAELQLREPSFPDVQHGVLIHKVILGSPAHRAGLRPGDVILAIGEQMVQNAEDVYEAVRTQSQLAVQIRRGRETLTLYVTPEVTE
# Test: holdup assay
# Set-up: key: below the threshold = too weak to quantify, mostly under pKd 3.1 to 4
# Settings: plain residues with an end cap or a label only (N-terminal biotin on a linker: ado-ado)
row,Binder,pKd
1,B1,4.18
2,B2,below the threshold

# Target: FRMPD2_2, Q68DX3
# Sequence (Q68DX3 944-1038): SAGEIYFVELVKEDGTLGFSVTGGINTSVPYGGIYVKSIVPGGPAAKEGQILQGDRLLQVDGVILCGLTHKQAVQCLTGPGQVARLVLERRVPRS
# Test: holdup assay
# Set-up: key: below the threshold = too weak to quantify, mostly under pKd 3.1 to 4
# Settings: plain residues with an end cap or a label only (N-terminal biotin on a linker: ado-ado)
row,Binder,pKd
1,B1,below the threshold
2,B2,below the threshold

# Target: NHERF4_1, Q86UT5-2
# Sequence (Q86UT5 other isoform, or with tags, fused parts or gaps): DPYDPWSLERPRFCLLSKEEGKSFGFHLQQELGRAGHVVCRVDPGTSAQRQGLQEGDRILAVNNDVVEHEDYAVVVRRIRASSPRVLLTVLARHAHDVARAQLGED
# Test: holdup assay
# Set-up: key: below the threshold = too weak to quantify, mostly under pKd 3.1 to 4
# Settings: plain residues with an end cap or a label only (N-terminal biotin on a linker: ado-ado)
row,Binder,pKd
1,B1,below the threshold
2,B2,4.35

# Target: T9, MPP7, Q5T2T1
# T9 sequence (Q5T2T1 134-230, limits assumed, looked up): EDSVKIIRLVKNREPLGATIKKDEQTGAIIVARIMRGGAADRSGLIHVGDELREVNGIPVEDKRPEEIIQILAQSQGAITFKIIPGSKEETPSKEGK
# Test: holdup assay
# Set-up: key: below the threshold = too weak to quantify, mostly under pKd 3.1 to 4
# Settings: plain residues with an end cap or a label only (N-terminal biotin on a linker: ado-ado)
row,Binder,pKd
1,B1,3.61
2,B2,below the threshold

# Target: T10, DFNB31_1, Q9P202
# T10 sequence (Q9P202 135-233, limits assumed, looked up): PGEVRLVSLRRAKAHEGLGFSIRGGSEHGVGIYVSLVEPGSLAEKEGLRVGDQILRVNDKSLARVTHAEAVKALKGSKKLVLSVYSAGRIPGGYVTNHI
# Test: holdup assay
# Set-up: key: below the threshold = too weak to quantify, mostly under pKd 3.1 to 4
# Settings: plain residues with an end cap or a label only (N-terminal biotin on a linker: ado-ado)
row,Binder,pKd
1,B1,below the threshold
2,B2,below the threshold

# Target: Inadl_4, Q8NI35
# Sequence (Q8NI35 547-651): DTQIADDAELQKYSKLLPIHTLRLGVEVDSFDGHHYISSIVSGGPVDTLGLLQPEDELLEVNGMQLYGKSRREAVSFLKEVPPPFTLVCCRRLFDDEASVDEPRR
# Test: holdup assay
# Set-up: key: below the threshold = too weak to quantify, mostly under pKd 3.1 to 4
# Settings: plain residues with an end cap or a label only (N-terminal biotin on a linker: ado-ado)
row,Binder,pKd
1,B1,below the threshold
2,B2,below the threshold

# Target: T11, GRIP1_2, Q9Y3R0
# T11 sequence (Q9Y3R0 145-248, limits assumed, looked up): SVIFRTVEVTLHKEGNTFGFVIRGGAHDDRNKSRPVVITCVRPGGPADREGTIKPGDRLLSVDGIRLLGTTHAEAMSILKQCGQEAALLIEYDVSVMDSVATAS
# Test: holdup assay
# Set-up: key: below the threshold = too weak to quantify, mostly under pKd 3.1 to 4
# Settings: plain residues with an end cap or a label only (N-terminal biotin on a linker: ado-ado)
row,Binder,pKd
1,B1,below the threshold
2,B2,below the threshold

# Source: PMC9482650, “Quantitative fragmentomics allow affinity mapping of interactomes” (Nature Communications, 2022)
